Experimental findings from patent US20210355194A1 (TWIST BIOSCIENCE, published 2021) are described below.

Residue numbers refer to the chain shown, from its start.

B1: variant 6-43 (Fc fusion)
VHH: EVQLVESGGGLVQPGGSLRLSCAASGRTFSSYAMMGWFRQAPGKEREFVASVNWDASQINYADSVKGRFTISADNSKNTAYLQMNSLKPEDTAVYYCTTLGAVYFDSSGYHDYFDYWGQGTLVTVSS
B2: variant 6-38 (Fc fusion)
VHH: EVQLVESGGGLVQPGGSLRLSCAASGNTFSGGFMGWFRQAPGKEREFVAVISSLSSKSYADSVKGRFTISADNSKNTAYLQMNSLKPEDTAVYYCAKVDSGYDYWGQGTLVTVSS
B3: variant 6-50 (Fc fusion)
VHH: EVQLVESGGGLVQPGGSLRLSCAASGFSFDRWAMGWFRQAPGKEREWVASLATGGNTNYADSVKGRFTISADNSKNTAYLQMNSLKPEDTAVYYCARVTNYDAFDIWGQGTLVTVSS
B4: variant 6-39 (Fc fusion)
VHH: EVQLVESGGGLVQPGGSLRLSCAASGFTFSPSWMGWFRQAPGKEREFVAAISWSGGSTAYADSVKGRFTISADNSKNTAYLQMNSLKPEDTAVYYCHGLGEGDPYGDYEGYFDLWGQGTLVTVSS
B5: variant 6-36 (Fc fusion)
VHH: EVQLVESGGGLVQPGGSLRLSCAASGFDFSVSWMGWFRQAPGKEREFVTAITWSGDSTNYADSVKGRFTISADNSKNTAYLQMNSLKPEDTAVYYCASLLHTGPSGGNYFDYWGQGTLVTVSS
B6: variant 6-49 (Fc fusion)
VHH: EVQLVESGGGLVQPGGSLRLSCAASGSTVLINAMGWFRQAPGKEREFVAAISWSPGRTDYADSVKGRFTISADNSKNTAYLQMNSLKPEDTAVYYCARDCSGGSCYSGDYWGQGTLVTVSS
B7: variant 6-37 (Fc fusion)
VHH: EVQLVESGGGLVQPGGSLRLSCAASGHTFSTSWMGWFRQAPGKEREFVATINSLGGTNYADSVKGRFTISADNSKNTAYLQMNSLKPEDTAVYYCARVSSGDYGMDVWGQGTLVTVSS
B8: variant 6-52 (Fc fusion)
VHH: EVQLVESGGGLVQPGGSLRLSCAASGDTYGSYWMGWFRQAPGKEREVVAAITSGGSTVYADSVKGRFTISADNSKNTAYLQMNSLKPEDTAVYYCARVDSRFDYWGQGTLVTVSS
B9: variant 6-55 (Fc fusion)
VHH: B8 VHH with D27F, Y29M, G30S, Y32S, V47F, A50R, V58G, R97S, S100G, R101Y
notes: VHH-Fc
B10: variant 6-41 (Fc fusion)
VHH: EVQLVESGGGLVQPGGSLRLSCAASGFTFSTSWMGWFRQAPGKEREFVASINEYGGRNYADSVKGRFTISADNSKNTAYLQMNSLKPEDTAVYYCAGLHYYYDSSGYNPTEYYGMDVWGQGTLVTVSS
B11: variant 6-40 (Fc fusion)
VHH: EVQLVESGGGLVQPGGSLRLSCAASGFTFSDYWMGWFRQAPGKERELVARVWWNGGSAYYADSVKGRFTISADNSKNTAYLQMNSLKPEDTAVYYCAREVLRQQVVLDYWGQGTLVTVSS
B12: variant 6-44 (Fc fusion)
VHH: EVQLVESGGGLVQPGGSLRLSCAASGGTFGVYHMGWFRQAPGKEREFIGRITWTDGSTYYADSVKGRFTISADNSKNTAYLQMNSLKPEDTAVYYCFGLLEVYDMTFDYWGQGTLVTVSS
B13: variant 6-60 (Fc fusion)
VHH: EVQLVESGGGLVQPGGSLRLSCAASGDTYGSYWMGWFRQAPGKEREFVATISQSGAATAYADSVKGRFTISADNSKNTAYLQMNSLKPEDTAVYYCAGLLRYSGTYYDAFDVWGQGTLVTVSS
notes: VHH-Fc
B14: variant 6-51 (Fc fusion)
VHH: EVQLVESGGGLVQPGGSLRLSCAASGYTYSSYVMGWFRQAPGKEREFVAAISRFGSTYYADSVKGRFTISADNSKNTAYLQMNSLKPEDTAVYYCARDSGEHFWDSGYIDHWGQGTLVTVSS
B15: variant 6-56 (Fc fusion)
VHH: EVQLVESGGGLVQPGGSLRLSCAASGNIFRSNMGWFRQAPGKEREFVAGITWNGDTTYYADSVKGRFTISADNSKNTAYLQMNSLKPEDTAVYYCARALGVTYQFDYWGQGTLVTVSS
B16: variant 6-42 (Fc fusion)
VHH: EVQLVESGGGLVQPGGSLRLSCAASGDTYGSYWMGWFRQAPGKEREFVAVITSGGSTNYADSVKGRFTISADNSKNTAYLQMNSLKPEDTAVYYCTHVQNSYYYAMDVWGQGTLVTVSS
B17: variant 6-34 (Fc fusion)
VHH: EVQLVESGGGLVQPGGSLRLSCAASGSAFRSNAMGWFRQAPGKEREFVAHISWSSKSTYYADSVKGRFTISADNSKNTAYLQMNSLKPEDTAVYYCATYCSSTSCFDYWGQGTLVTVSS
B18: variant 6-58 (Fc fusion)
VHH: EVQLVESGGGLVQPGGSLRLSCAASGRAVSTYAMGWFRQAPGKEREFVAAISGSENVTSYADSVKGRFTISADNSKNTAYLQMNSLKPEDTAVYYCLSVTGDTEDYGVFDTWGQGTLVTVSS
B19: variant 6-53 (Fc fusion)
VHH: EVQLVESGGGLVQPGGSLRLSCAASGISINTNVMGWFRQAPGKEREFVAAISTGSVTIYADSVKGRFTISADNSKNTAYLQMNSLKPEDTAVYYCARVDDFGYFDLWGQGTLVTVSS
B20: variant 6-47 (Fc fusion)
VHH: EVQLVESGGGLVQPGGSLRLSCAASGRTFSMHAMGWFRQAPGKERELVASITYGGNINYADSVKGRFTISADNSKNTAYLQMNSLKPEDTAVYYCAKEGYYDSTGYRTYFQQWGQGTLVTVSS
B21: variant 6-54 (Fc fusion)
VHH: EVQLVESGGGLVQPGGSLRLSCAASGFEFENHWMGWFRQAPGKEREYVAHITAGGLSNYADSVKGRFTISADNSKNTAYLQMNSLKPEDTAVYYCGRHWGIYDSSGFSSFDYWGQGTLVTVSS
B22: variant 6-57 (Fc fusion)
VHH: EVQLVESGGGLVQPGGSLRLSCAASGLTFDDHSMGWFRQAPGKEREFVAAVPLSGNTYYADSVKGRFTISADNSKNTAYLQMNSLKPEDTAVYYCASFSGGPADFDYWGQGTLVTVSS
B23: variant 6-46 (Fc fusion)
VHH: EVQLVESGGGLVQPGGSLRLSCAASGLTFSAMGWFRQAPGKEREFVALIRRDGSTIYADSVKGRFTISADNSKNTAYLQMNSLKPEDTAVYYCAALGILFGYDAFDIWGQGTLVTVSS
B24: variant 6-45 (Fc fusion)
VHH: EVQLVESGGGLVQPGGSLRLSCAASGNMFSINAMGWFRQAPGKEREFVTLISWSSGRTSYADSVKGRFTISADNSKNTAYLQMNSLKPEDTAVYYCASLGYCSGGSCFDYWGQGTLVTVSS

The target in the assay is CV S-protein construct 6 trimer TP31001F (SARS-CoV-2, UniProt P0DTC2 14-1208). The assay can be described thus: SPR. On the technique in general: SPR reads the build-up and loss of mass on a sensor chip optically.
B1 returned a Kd of 0.7 nM. Molecule B2 registered a Kd of 0.5 nM. The Kd values of the last two molecules are within 1.5-fold of each other. In turn, B3 gave a Kd of 67.6 nM. This Kd is about 140-fold higher than that of the molecule before.

As to B4, the Kd stood at 0.1 nM. B5 displayed a Kd of 0.8 nM. B6 gave a Kd of 2.2 nM.

B7 displayed a Kd of 0.7 nM. This Kd lies about 3.1-fold lower than the previous one.

Take B8: the Kd is 1.1 nM. The molecule B9 registered a Kd of 0.3 nM. This Kd lies about 3.7-fold lower than the previous one. On to B10, for which the affinity, expressed as Kd, was 1 nM.

On to B11, for which binding was characterised by a dissociation constant (Kd) of 1.9 nM. On to B12, for which binding was characterised by a dissociation constant (Kd) of 0.9 nM. This Kd lies about 2.1-fold lower than the previous one.

On to B13, for which the Kd amounted to 0.1 nM. To B14 belongs 0.8 nM; to B15, 14.9 nM; to B16, 7.8 nM. B17 came in with a Kd of 0.7 nM. B18: binding was put at a Kd of 1 nM. In turn, B19 yielded a Kd of 24.2 nM. For the molecule B20, binding was put at a Kd of 5.6 nM. The molecule B21 displayed a Kd of 0.9 nM. Against the preceding molecule, the Kd is about 6.2-fold lower. For B22, the Kd was 0.7 nM. With B23, the Kd is 1.9 nM.

Molecule B24 yielded a Kd of 1.3 nM. This Kd and that of the molecule before are within 1.5-fold of each other.

As a reminder, the Kd is the equilibrium constant for the complex coming apart. Higher therefore signals weaker binding.
